± gives the uncertainty stated by the source.
B1: CD2-associated protein, residues 271 to 331; numbered along this chain, Q9Y5K6 (parent)
chain: KEYCRTLFAYEGTNEDELTFKEGEIIHLISKETGEAGWWRGELNGKEGVFPDNFAVQINEL

Variants of: B1
Assay: abundance fitness (aPCA) (normalised: wild type 0, dead -1); higher = more abundant; growth selection in yeast, the domain comes from the species named
Settings: Homo sapiens

Q: Which abundance fitness does the source give for KEYCRTLFAYEGTNEAELTFKEGEIIHLISKETGEAGWWRGELNGKEGVFPDNFAVQINEL [D16A] here?
A: The abundance fitness was -0.061 ± 0.055.

Q: Which abundance fitness does the source give for KEYCRTLFAYEGTNEEELTFKEGEIIHLISKETGEAGWWRGELNGKEGVFPDNFAVQINEL [D16E] here?
A: Its abundance fitness is -0.018 ± 0.054.

Q: With KEYCRTLFAYEGTNEFELTFKEGEIIHLISKETGEAGWWRGELNGKEGVFPDNFAVQINEL [D16F] as the variant, how does the abundance fitness read?
A: The abundance fitness was -0.002 ± 0.073.

Q: With KEYCRTLFAYEGTNEGELTFKEGEIIHLISKETGEAGWWRGELNGKEGVFPDNFAVQINEL [D16G] as the variant, how does the abundance fitness read?
A: The abundance fitness was 0.051 ± 0.048.

Q: With KEYCRTLFAYEGTNEIELTFKEGEIIHLISKETGEAGWWRGELNGKEGVFPDNFAVQINEL [D16I] as the variant, how does the abundance fitness read?
A: Its abundance fitness is -0.699 ± 0.19.

Q: For KEYCRTLFAYEGTNEMELTFKEGEIIHLISKETGEAGWWRGELNGKEGVFPDNFAVQINEL [D16M], which abundance fitness is on record?
A: Its abundance fitness is -0.194 ± 0.057.

Q: With KEYCRTLFAYEGTNEKELTFKEGEIIHLISKETGEAGWWRGELNGKEGVFPDNFAVQINEL [D16K] as the variant, how does the abundance fitness read?
A: The abundance fitness was 0.026 ± 0.087.

Q: Which abundance fitness does the source give for KEYCRTLFAYEGTKEDELTFKEGEIIHLISKETGEAGWWRGELNGKEGVFPDNFAVQINEL [N14K] here?
A: Its abundance fitness is -0.033 ± 0.088.

Q: For KEYCRTLFAYEGTSEDELTFKEGEIIHLISKETGEAGWWRGELNGKEGVFPDNFAVQINEL [N14S], which abundance fitness is on record?
A: The abundance fitness was -0.024 ± 0.061.

Q: For KEYCRTLFAYEGTTEDELTFKEGEIIHLISKETGEAGWWRGELNGKEGVFPDNFAVQINEL [N14T], which abundance fitness is on record?
A: Its abundance fitness is -0.041 ± 0.072.

Q: With KEYCRTLFAYEGTDEDELTFKEGEIIHLISKETGEAGWWRGELNGKEGVFPDNFAVQINEL [N14D] as the variant, how does the abundance fitness read?
A: Its abundance fitness is -0.107 ± 0.1.

Q: Which abundance fitness does the source give for KEYCRTLFAYEGTPEDELTFKEGEIIHLISKETGEAGWWRGELNGKEGVFPDNFAVQINEL [N14P] here?
A: Its abundance fitness is -0.756 ± 0.12.

Q: With KEYCRTLFAYEGTREDELTFKEGEIIHLISKETGEAGWWRGELNGKEGVFPDNFAVQINEL [N14R] as the variant, how does the abundance fitness read?
A: The abundance fitness was -0.061 ± 0.066.

Q: For KEYCRTLFAYEGTHEDELTFKEGEIIHLISKETGEAGWWRGELNGKEGVFPDNFAVQINEL [N14H], which abundance fitness is on record?
A: The abundance fitness was -0.107 ± 0.074.

Q: Which abundance fitness does the source give for KEYCRTLFAYEGTVEDELTFKEGEIIHLISKETGEAGWWRGELNGKEGVFPDNFAVQINEL [N14V] here?
A: The abundance fitness was -0.421 ± 0.089.

Q: With KEYCRTLFAYEGTYEDELTFKEGEIIHLISKETGEAGWWRGELNGKEGVFPDNFAVQINEL [N14Y] as the variant, how does the abundance fitness read?
A: Its abundance fitness is -0.38 ± 0.14.

Q: With KEYCRTLFAYEGTAEDELTFKEGEIIHLISKETGEAGWWRGELNGKEGVFPDNFAVQINEL [N14A] as the variant, how does the abundance fitness read?
A: The abundance fitness was -0.023 ± 0.078.

Q: For KEYCRTLFAYEGTIEDELTFKEGEIIHLISKETGEAGWWRGELNGKEGVFPDNFAVQINEL [N14I], which abundance fitness is on record?
A: The abundance fitness was -0.202 ± 0.11.

Q: With KEYCRTLFAYEGTWEDELTFKEGEIIHLISKETGEAGWWRGELNGKEGVFPDNFAVQINEL [N14W] as the variant, how does the abundance fitness read?
A: The abundance fitness was -0.239 ± 0.11.

Q: With KEYCRTLFAYEGTMEDELTFKEGEIIHLISKETGEAGWWRGELNGKEGVFPDNFAVQINEL [N14M] as the variant, how does the abundance fitness read?
A: Its abundance fitness is -0.172 ± 0.081.

Q: For KEYCRTLFAYEGTCEDELTFKEGEIIHLISKETGEAGWWRGELNGKEGVFPDNFAVQINEL [N14C], which abundance fitness is on record?
A: The abundance fitness was 0.029 ± 0.097.

Q: Which abundance fitness does the source give for KEYCRTLFAYEGTLEDELTFKEGEIIHLISKETGEAGWWRGELNGKEGVFPDNFAVQINEL [N14L] here?
A: Its abundance fitness is -0.4 ± 0.072.

Q: For KEYCRTLFAYEGTQEDELTFKEGEIIHLISKETGEAGWWRGELNGKEGVFPDNFAVQINEL [N14Q], which abundance fitness is on record?
A: The abundance fitness was -0.012 ± 0.081.

Q: Which abundance fitness does the source give for KEYCRTLFAYEGTGEDELTFKEGEIIHLISKETGEAGWWRGELNGKEGVFPDNFAVQINEL [N14G] here?
A: The abundance fitness was -0.087 ± 0.072.

Q: Which abundance fitness does the source give for KEYCRTLFAYEGTFEDELTFKEGEIIHLISKETGEAGWWRGELNGKEGVFPDNFAVQINEL [N14F] here?
A: Its abundance fitness is -0.336 ± 0.13.

Q: For KEYCRTLFAYEGTEEDELTFKEGEIIHLISKETGEAGWWRGELNGKEGVFPDNFAVQINEL [N14E], which abundance fitness is on record?
A: Its abundance fitness is -0.159 ± 0.092.

Q: For KEYCRTLFAYEGLNEDELTFKEGEIIHLISKETGEAGWWRGELNGKEGVFPDNFAVQINEL [T13L], which abundance fitness is on record?
A: Its abundance fitness is -0.082 ± 0.05.

Q: With KEYCRTLFAYEGPNEDELTFKEGEIIHLISKETGEAGWWRGELNGKEGVFPDNFAVQINEL [T13P] as the variant, how does the abundance fitness read?
A: The abundance fitness was -0.594 ± 0.089.

Q: Which abundance fitness does the source give for KEYCRTLFAYEGRNEDELTFKEGEIIHLISKETGEAGWWRGELNGKEGVFPDNFAVQINEL [T13R] here?
A: The abundance fitness was 0.042 ± 0.053.

Q: Which abundance fitness does the source give for KEYCRTLFAYEGCNEDELTFKEGEIIHLISKETGEAGWWRGELNGKEGVFPDNFAVQINEL [T13C] here?
A: The abundance fitness was 0.038 ± 0.11.

Q: With KEYCRTLFAYEGDNEDELTFKEGEIIHLISKETGEAGWWRGELNGKEGVFPDNFAVQINEL [T13D] as the variant, how does the abundance fitness read?
A: The abundance fitness was -0.185 ± 0.085.

Q: With KEYCRTLFAYEGKNEDELTFKEGEIIHLISKETGEAGWWRGELNGKEGVFPDNFAVQINEL [T13K] as the variant, how does the abundance fitness read?
A: The abundance fitness was 0.108 ± 0.066.

Q: With KEYCRTLFAYEGVNEDELTFKEGEIIHLISKETGEAGWWRGELNGKEGVFPDNFAVQINEL [T13V] as the variant, how does the abundance fitness read?
A: Its abundance fitness is -0.083 ± 0.048.

Q: For KEYCRTLFAYEGYNEDELTFKEGEIIHLISKETGEAGWWRGELNGKEGVFPDNFAVQINEL [T13Y], which abundance fitness is on record?
A: The abundance fitness was -0.257 ± 0.1.

Q: Which abundance fitness does the source give for KEYCRTLFAYEGSNEDELTFKEGEIIHLISKETGEAGWWRGELNGKEGVFPDNFAVQINEL [T13S] here?
A: Its abundance fitness is -0.051 ± 0.053.

Q: For KEYCRTLFAYEGINEDELTFKEGEIIHLISKETGEAGWWRGELNGKEGVFPDNFAVQINEL [T13I], which abundance fitness is on record?
A: The abundance fitness was -0.183 ± 0.15.

Q: Which abundance fitness does the source give for KEYCRTLFAYEGFNEDELTFKEGEIIHLISKETGEAGWWRGELNGKEGVFPDNFAVQINEL [T13F] here?
A: Its abundance fitness is -0.416 ± 0.1.

Q: For KEYCRTLFAYEGGNEDELTFKEGEIIHLISKETGEAGWWRGELNGKEGVFPDNFAVQINEL [T13G], which abundance fitness is on record?
A: Its abundance fitness is -0.018 ± 0.064.

Q: Which abundance fitness does the source give for KEYCRTLFAYEGNNEDELTFKEGEIIHLISKETGEAGWWRGELNGKEGVFPDNFAVQINEL [T13N] here?
A: The abundance fitness was -0.078 ± 0.093.

Q: Which abundance fitness does the source give for KEYCRTLFAYEGWNEDELTFKEGEIIHLISKETGEAGWWRGELNGKEGVFPDNFAVQINEL [T13W] here?
A: The abundance fitness was -0.475 ± 0.093.

Q: With KEYCRTLFAYEGANEDELTFKEGEIIHLISKETGEAGWWRGELNGKEGVFPDNFAVQINEL [T13A] as the variant, how does the abundance fitness read?
A: Its abundance fitness is 0.066 ± 0.063.

Q: With KEYCRTLFAYEGENEDELTFKEGEIIHLISKETGEAGWWRGELNGKEGVFPDNFAVQINEL [T13E] as the variant, how does the abundance fitness read?
A: The abundance fitness was -0.042 ± 0.062.

Q: For KEYCRTLFAYEGHNEDELTFKEGEIIHLISKETGEAGWWRGELNGKEGVFPDNFAVQINEL [T13H], which abundance fitness is on record?
A: Its abundance fitness is -0.197 ± 0.12.

Q: With KEYCRTLFAYEGQNEDELTFKEGEIIHLISKETGEAGWWRGELNGKEGVFPDNFAVQINEL [T13Q] as the variant, how does the abundance fitness read?
A: The abundance fitness was 0.122 ± 0.083.

— the Human Domainome abundance scans (Beltran et al. 2025)
